Tests used:
[1] = molecular target: T1, RhoC Q63L, full length, as the C-terminal module of the RhoC FLARE.sc biosensor (UniProt P08134 1-193, Q63L); assay: FRET or BRET; intramolecular FRET of the single-chain biosensor (binding domain-mCerulean-linker-mVenus-RhoC); fluorometry of cold, live HEK293T cell suspensions in PBS 48 h after transfection, excitation 433 nm, emission 450-600 nm, FRET/CFP ratio; conditions: partners not purified
T1 construct: RhoC GTPase, full length, with Q63L; On one chain with m1, as m2; also called constitutively active mutant; source: HEK293T, transfected (Lipofectamine2000), in live cell suspension; not shown: monomeric Venus, N-terminal, kept

[2] = molecular target: T2, RhoC G14V, full length, as the C-terminal module of the RhoC FLARE.sc biosensor (UniProt P08134 1-193, G14V); assay: as above; conditions: partners not purified
T2 construct: RhoC GTPase, full length, with G14V; On one chain with m1, as m2; also called constitutively active mutant; source: HEK293T, transfected (Lipofectamine2000), in live cell suspension; not shown: monomeric Venus, N-terminal, kept
T2 sequence (P08134 whole entry G14V): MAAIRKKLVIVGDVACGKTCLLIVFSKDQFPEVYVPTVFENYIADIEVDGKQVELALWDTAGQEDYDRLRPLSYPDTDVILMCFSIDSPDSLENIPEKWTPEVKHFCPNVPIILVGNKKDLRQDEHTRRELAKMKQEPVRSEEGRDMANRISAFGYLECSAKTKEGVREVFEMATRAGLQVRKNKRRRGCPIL

T1 sequence (P08134 whole entry Q63L, the tested form may be a part): as the sequence (P08134 whole entry G14V) above, with V14G, Q63L counted along it

increase in FRET ratio against the T19N biosensor [1]: 41%
increase in FRET ratio against the T19N biosensor [2]: 41%
B1: ROCK1 Rho binding domain (RBD, amino acids 905-1046), as the N-terminal module of the RhoC FLARE.sc biosensor (domain or fragment, UniProt Q13464 905-1046, looked up)
chain: ARGLLEEQYFELTQESKKAASRNRQEITDKDHTVSRLEEANSMLTKDIEILRRENEELTEKMKKAEEEYKLEKEEEISNLKAAFEKNINTERTLKTQAVNKLAEIMNRKDFKIDRKKANTQDLRKKEKENRKLQLELNQERE
notes: It is split from RhoC here so that the intramolecular pair can be written; Subcloned into pTriEX-HisMyc4 (Novagen), which may add His and Myc tags; source: HEK293T, transfected (Lipofectamine2000), in live cell suspension; not shown: monomeric Cerulean, C-terminal, kept

Reference: PMC3818223, “A RhoC Biosensor Reveals Differences in the Activation Kinetics of RhoA and RhoC in Migrating Cells” (PLoS ONE, 2013)
